According to patent US20100291705A1, “ANTIGEN EXPOSING MICELLE AND UNORDERED AGGREGATE” (EURO-DIAGNOSTICA AB, priority 2007, published 2010):

Target: T1, (Homo sapiens, UniProt P02749)
T1 sequence (P02749 20-345): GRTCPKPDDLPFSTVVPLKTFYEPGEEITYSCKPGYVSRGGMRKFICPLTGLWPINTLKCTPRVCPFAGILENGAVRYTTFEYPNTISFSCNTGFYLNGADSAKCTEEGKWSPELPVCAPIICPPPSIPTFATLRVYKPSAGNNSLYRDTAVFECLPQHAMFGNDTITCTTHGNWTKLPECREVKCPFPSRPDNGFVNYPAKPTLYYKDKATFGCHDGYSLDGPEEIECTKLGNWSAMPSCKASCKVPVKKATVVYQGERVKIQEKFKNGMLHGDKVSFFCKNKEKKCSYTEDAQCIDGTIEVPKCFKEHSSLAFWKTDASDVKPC
Assay: Detection of β2-GPI associated to the cardiolipin aggregates with mouse IgG anti-β2-GPI antibody (ELISA)
Format: binding
Conditions: after washing with 0.05% Tween-20 in PBS
Method: Antigen exposing lipid aggregates were prepared according to example 2 by mixing 90% cardiolipin with 10% PE-bio. The lipid aggregates were then adsorbed on a 96-well streptavidin coated ELISA plate (Eurodiagnostica AB) at concentration 90 μg/ml. The plate was incubated for 1 h at room temperature. The plate was washed three times with 0.05% Tween-20 in PBS and then incubated with or without β2-GPI for 30 minutes.
To determine the amount β2-GPI bound to cardiolipin aggregates a mouse IgG anti-β2-GPI antibody was used. This antibody was detected with an alkaline phosphatase conjugated anti-mouse IgG antibody (Sigma-Aldrich).
All the antibodies were diluted in PBS with 1% BSA and incubated for 1 h at RT. The plate was developed with alkaline phosphatase yellow liquid system for ELISA (Sigma-Aldrich) and absorbance 405 nm determined after 10-30 min. Between each incubation step the plate was washed three times with 0.05% Tween-20 in PBS.

B1: β2-GPI: protein incubated with bound cardiolipin aggregates to form the cardiolipin-β2-GPI complex (protein, UniProt P02749 20-345, looked up)
Beta-2-glycoprotein 1: GRTCPKPDDLPFSTVVPLKTFYEPGEEITYSCKPGYVSRGGMRKFICPLTGLWPINTLKCTPRVCPFAGILENGAVRYTTFEYPNTISFSCNTGFYLNGADSAKCTEEGKWSPELPVCAPIICPPPSIPTFATLRVYKPSAGNNSLYRDTAVFECLPQHAMFGNDTITCTTHGNWTKLPECREVKCPFPSRPDNGFVNYPAKPTLYYKDKATFGCHDGYSLDGPEEIECTKLGNWSAMPSCKASCKVPVKKATVVYQGERVKIQEKFKNGMLHGDKVSFFCKNKEKKCSYTEDAQCIDGTIEVPKCFKEHSSLAFWKTDASDVKPC
β2-GPI bound to cardiolipin aggregates (FIG. 8): remained associated with cardiolipin after washing with 0.05% Tween-20 in PBS
